Laboratory results published in the supplement of paper PMC9112550, “Optimization of the antimicrobial peptide Bac7 by deep mutational scanning” (BMC Biology, 2022).

Tested on: Escherichia coli TOP10
Assay: shrunken log2 fold change of peptide-encoding DNA abundance (4.5 h post-induction vs induction); higher = less antimicrobial activity (less host growth inhibition)
Settings: time post-induction: 4.5 h; library: site-saturation at positions 5, 18, 19, 20
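Note: peptides expressed intracellularly from a pBAD plasmid library in pooled LB shake-flask culture, induced with 0.3% L-arabinose, DNA abundance read by NGS, three biological replicates, DESeq2 with apeglm shrinkage.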

RRIRRRPPRLPRPRPRPPVHPRP and RRIRTRPPRLPRPRPRPGIGPRP are within 0.2 log units of each other in “shrunken log2 fold change” value: 0.197 for the first, 0.17 for the second.

First: RRIRGRPPRLPRPRPRPFKNPRP
Second: RRIRSRPPRLPRPRPRPKRYPRP
The “shrunken log2 fold change” value of the first is higher: 0.243 for the first, -0.163 for the second.

RRIRLRPPRLPRPRPRPSPGPRP and RRIRWRPPRLPRPRPRPGKQPRP are within 0.2 log units of each other in “shrunken log2 fold change” value: 0.0266 for the first, 0.151 for the second.

RRIRSRPPRLPRPRPRPLTHPRP and RRIRERPPRLPRPRPRPNRHPRP are within 0.2 log units of each other in “shrunken log2 fold change” value: -0.569 for the first, -0.516 for the second.

First: RRIRLRPPRLPRPRPRPLCSPRP
Second: RRIRFRPPRLPRPRPRPVNDPRP
The “shrunken log2 fold change” value of the first is lower: -0.223 for the first, -0.0167 for the second.

Going from RRIRNRPPRLPRPRPRPPAQPRP to RRIRQRPPRLPRPRPRPTAQPRP, the “shrunken log2 fold change” value falls from 0.314 to 0.0588.

RRIRNRPPRLPRPRPRPVFFPRP and RRIRHRPPRLPRPRPRPIHMPRP are within 0.2 log units of each other in “shrunken log2 fold change” value: -0.223 for the first, -0.141 for the second.

First: RRIRERPPRLPRPRPRPVGAPRP
Second: RRIRQRPPRLPRPRPRPCYKPRP
The “shrunken log2 fold change” value of the first is higher: 0.392 for the first, -0.271 for the second.

Compared with RRIRWRPPRLPRPRPRPGWIPRP, RRIRNRPPRLPRPRPRPPGNPRP is higher in “shrunken log2 fold change” value: 0.207 for the first, 0.532 for the second.

First: RRIRSRPPRLPRPRPRPYAGPRP
Second: RRIRFRPPRLPRPRPRPLQCPRP
The “shrunken log2 fold change” value of the first is higher: 0.0441 for the first, -0.293 for the second.

RRIRSRPPRLPRPRPRPEHKPRP and RRIRIRPPRLPRPRPRPLFEPRP are within 0.2 log units of each other in “shrunken log2 fold change” value: -0.156 for the first, -0.251 for the second.

First: RRIRLRPPRLPRPRPRPCCRPRP
Second: RRIRGRPPRLPRPRPRPEQLPRP
The “shrunken log2 fold change” value of the first is lower: 0.0477 for the first, 0.443 for the second.

Going from RRIRFRPPRLPRPRPRPPCFPRP to RRIRGRPPRLPRPRPRPGYDPRP, the “shrunken log2 fold change” value rises from -0.0777 to 0.371.

Compared with RRIRNRPPRLPRPRPRPQVYPRP, RRIRGRPPRLPRPRPRPKGTPRP is higher in “shrunken log2 fold change” value: -0.0412 for the first, 0.294 for the second.

Compared with RRIRERPPRLPRPRPRPKKDPRP, RRIRDRPPRLPRPRPRPEAKPRP is higher in “shrunken log2 fold change” value: -0.346 for the first, 2.4 for the second.

RRIRMRPPRLPRPRPRPLRFPRP and RRIRARPPRLPRPRPRPPERPRP are within 0.2 log units of each other in “shrunken log2 fold change” value: 0.74 for the first, 0.703 for the second.

RRIRIRPPRLPRPRPRPKQMPRP and RRIRCRPPRLPRPRPRPIWVPRP are within 0.2 log units of each other in “shrunken log2 fold change” value: -0.166 for the first, -0.0515 for the second.

Compared with RRIRQRPPRLPRPRPRPFCHPRP, RRIRRRPPRLPRPRPRPRRKPRP is higher in “shrunken log2 fold change” value: 0.00489 for the first, 0.43 for the second.

First: RRIRTRPPRLPRPRPRPGMCPRP
Second: RRIRTRPPRLPRPRPRPAKRPRP
The “shrunken log2 fold change” value of the first is lower: -0.139 for the first, 0.0872 for the second.

RRIRKRPPRLPRPRPRPNQQPRP and RRIRNRPPRLPRPRPRPARDPRP are within 0.2 log units of each other in “shrunken log2 fold change” value: 0.101 for the first, 0.27 for the second.

RRIRARPPRLPRPRPRPIKTPRP and RRIRDRPPRLPRPRPRPLSFPRP are within 0.2 log units of each other in “shrunken log2 fold change” value: 0.213 for the first, 0.0422 for the second.

First: RRIRNRPPRLPRPRPRPQGGPRP
Second: RRIRLRPPRLPRPRPRPYRDPRP
The “shrunken log2 fold change” value of the first is lower: -0.28 for the first, 0.0076 for the second.

RRIRSRPPRLPRPRPRPMPIPRP and RRIRNRPPRLPRPRPRPPYQPRP are within 0.2 log units of each other in “shrunken log2 fold change” value: -0.109 for the first, -0.22 for the second.

Going from RRIRARPPRLPRPRPRPDNSPRP to RRIRERPPRLPRPRPRPCYPPRP, the “shrunken log2 fold change” value falls from -0.269 to -0.498.

RRIRWRPPRLPRPRPRPCASPRP and RRIRLRPPRLPRPRPRPYRLPRP are within 0.2 log units of each other in “shrunken log2 fold change” value: -0.0152 for the first, -0.0305 for the second.

RRIRVRPPRLPRPRPRPACTPRP and RRIRPRPPRLPRPRPRPVTWPRP are within 0.2 log units of each other in “shrunken log2 fold change” value: -0.0478 for the first, -0.0661 for the second.

First: RRIRYRPPRLPRPRPRPGAQPRP
Second: RRIRYRPPRLPRPRPRPAKHPRP
The “shrunken log2 fold change” value of the first is higher: -0.0279 for the first, -0.912 for the second.

Compared with RRIRFRPPRLPRPRPRPKMQPRP, RRIRYRPPRLPRPRPRPEGWPRP is higher in “shrunken log2 fold change” value: -0.0373 for the first, 0.489 for the second.

Compared with RRIRQRPPRLPRPRPRPNDMPRP, RRIRLRPPRLPRPRPRPMGHPRP is higher in “shrunken log2 fold change” value: -0.296 for the first, -0.0276 for the second.

Compared with RRIRPRPPRLPRPRPRPHYQPRP, RRIRLRPPRLPRPRPRPHKFPRP is higher in “shrunken log2 fold change” value: -0.417 for the first, -0.138 for the second.

First: RRIRPRPPRLPRPRPRPAGIPRP
Second: RRIRKRPPRLPRPRPRPEIDPRP
The “shrunken log2 fold change” value of the first is lower: -0.0533 for the first, 2.84 for the second.

Compared with RRIRARPPRLPRPRPRPDADPRP, RRIRRRPPRLPRPRPRPVDQPRP is lower in “shrunken log2 fold change” value: 1.63 for the first, 0.348 for the second.

First: RRIRNRPPRLPRPRPRPDVIPRP
Second: RRIRTRPPRLPRPRPRPMNYPRP
The “shrunken log2 fold change” value of the first is higher: -0.135 for the first, -0.949 for the second.

RRIRARPPRLPRPRPRPEEFPRP and RRIRDRPPRLPRPRPRPENKPRP are within 0.2 log units of each other in “shrunken log2 fold change” value: 0.00844 for the first, 0.0324 for the second.

RRIRNRPPRLPRPRPRPLRQPRP and RRIRFRPPRLPRPRPRPSKHPRP are within 0.2 log units of each other in “shrunken log2 fold change” value: 0.154 for the first, 0.0257 for the second.

First: RRIRSRPPRLPRPRPRPRVYPRP
Second: RRIRWRPPRLPRPRPRPLPHPRP
The “shrunken log2 fold change” value of the first is lower: -0.348 for the first, 0.188 for the second.

Going from RRIRYRPPRLPRPRPRPDAWPRP to RRIRDRPPRLPRPRPRPRYYPRP, the “shrunken log2 fold change” value falls from 0.0522 to -0.175.

RRIRWRPPRLPRPRPRPPYAPRP and RRIRWRPPRLPRPRPRPRPWPRP are within 0.2 log units of each other in “shrunken log2 fold change” value: 0.426 for the first, 0.289 for the second.

First: RRIRVRPPRLPRPRPRPGVMPRP
Second: RRIRLRPPRLPRPRPRPIDIPRP
The “shrunken log2 fold change” value of the first is lower: -0.261 for the first, 0.00368 for the second.

First: RRIRVRPPRLPRPRPRPHHPPRP
Second: RRIRGRPPRLPRPRPRPLHCPRP
The “shrunken log2 fold change” value of the first is lower: -0.131 for the first, 0.188 for the second.

RRIRKRPPRLPRPRPRPAFPPRP and RRIRVRPPRLPRPRPRPDANPRP are within 0.2 log units of each other in “shrunken log2 fold change” value: 0.165 for the first, 0.167 for the second.

Compared with RRIRSRPPRLPRPRPRPTDHPRP, RRIRHRPPRLPRPRPRPAYEPRP is higher in “shrunken log2 fold change” value: -0.339 for the first, 0.0981 for the second.

RRIRKRPPRLPRPRPRPVYMPRP and RRIRIRPPRLPRPRPRPMHCPRP are within 0.2 log units of each other in “shrunken log2 fold change” value: -0.082 for the first, -0.00192 for the second.

RRIRIRPPRLPRPRPRPYKTPRP and RRIRPRPPRLPRPRPRPGQNPRP are within 0.2 log units of each other in “shrunken log2 fold change” value: -0.0104 for the first, 0.0194 for the second.

RRIRLRPPRLPRPRPRPTVRPRP and RRIRCRPPRLPRPRPRPIHPPRP are within 0.2 log units of each other in “shrunken log2 fold change” value: -0.107 for the first, 0.00281 for the second.

Compared with RRIRVRPPRLPRPRPRPNRCPRP, RRIRFRPPRLPRPRPRPDGMPRP is higher in “shrunken log2 fold change” value: -0.364 for the first, -0.0385 for the second.

Compared with RRIRMRPPRLPRPRPRPCKNPRP, RRIRLRPPRLPRPRPRPPVIPRP is lower in “shrunken log2 fold change” value: 4.11 for the first, -0.0477 for the second.

First: RRIRERPPRLPRPRPRPMVWPRP
Second: RRIRGRPPRLPRPRPRPALDPRP
The “shrunken log2 fold change” value of the first is lower: -0.0633 for the first, 1.4 for the second.

First: RRIRERPPRLPRPRPRPEMKPRP
Second: RRIRTRPPRLPRPRPRPCCVPRP
The “shrunken log2 fold change” value of the first is higher: 0.425 for the first, -0.363 for the second.

RRIRQRPPRLPRPRPRPQRDPRP and RRIRGRPPRLPRPRPRPHYAPRP are within 0.2 log units of each other in “shrunken log2 fold change” value: 0.0969 for the first, -0.0664 for the second.

First: RRIRDRPPRLPRPRPRPEGRPRP
Second: RRIRFRPPRLPRPRPRPRDKPRP
The “shrunken log2 fold change” value of the first is higher: 0.517 for the first, -0.102 for the second.

RRIRDRPPRLPRPRPRPASHPRP and RRIRPRPPRLPRPRPRPMMNPRP are within 0.2 log units of each other in “shrunken log2 fold change” value: 0.0378 for the first, 0.03 for the second.

RRIRYRPPRLPRPRPRPAACPRP and RRIRGRPPRLPRPRPRPLSCPRP are within 0.2 log units of each other in “shrunken log2 fold change” value: 0.115 for the first, 0.276 for the second.

Going from RRIRIRPPRLPRPRPRPFDHPRP to RRIRQRPPRLPRPRPRPMVYPRP, the “shrunken log2 fold change” value rises from -0.225 to 0.017.

Compared with RRIRKRPPRLPRPRPRPCVLPRP, RRIRQRPPRLPRPRPRPTNVPRP is lower in “shrunken log2 fold change” value: 0.0725 for the first, -0.302 for the second.

First: RRIRKRPPRLPRPRPRPIRQPRP
Second: RRIRERPPRLPRPRPRPCCLPRP
The “shrunken log2 fold change” value of the first is higher: 0.0556 for the first, -0.57 for the second.

Compared with RRIRNRPPRLPRPRPRPDTMPRP, RRIRPRPPRLPRPRPRPSDAPRP is higher in “shrunken log2 fold change” value: -1.25 for the first, -0.0621 for the second.

RRIRVRPPRLPRPRPRPWKHPRP and RRIRKRPPRLPRPRPRPHACPRP are within 0.2 log units of each other in “shrunken log2 fold change” value: -0.0202 for the first, 0.0691 for the second.

Going from RRIRIRPPRLPRPRPRPDGRPRP to RRIRGRPPRLPRPRPRPNGAPRP, the “shrunken log2 fold change” value rises from -0.13 to 0.827.

First: RRIRGRPPRLPRPRPRPELKPRP
Second: RRIRERPPRLPRPRPRPQQLPRP
The “shrunken log2 fold change” value of the first is higher: 0.336 for the first, -0.178 for the second.

Going from RRIRSRPPRLPRPRPRPTNMPRP to RRIRVRPPRLPRPRPRPMVVPRP, the “shrunken log2 fold change” value rises from -0.465 to -0.0329.

RRIRHRPPRLPRPRPRPQYVPRP and RRIRMRPPRLPRPRPRPYMHPRP are within 0.2 log units of each other in “shrunken log2 fold change” value: -0.213 for the first, -0.0641 for the second.

With RRIRPRPPRLPRPRPRPWNEPRP the “shrunken log2 fold change” value was -0.138.
